Drawing on patent publication US20110231942A1, this text covers decrease in Wnt3a acylation (metabolic labeling with az-15 and 35S-Met/Cys, click chemistry with ALK-Rho on immunoprecipitated Wnt3a) for one substance.

The target of this test is Wnt3a. As to the kind of experiment: cell-based or functional assay.

For the substance “Human Tiki2 (from UniProt A6NFA1 20-486) (enzyme)”, the decrease in Wnt3a acylation (metabolic labeling with az-15 and 35S-Met/Cys, click chemistry with ALK-Rho on immunoprecipitated Wnt3a) is 31%.
